From patent US12037418B2, “Hydrogel-forming peptides, and methods of use thereof” (Nanyang Technological University, priority 2020, dated 2024)

How the values were obtained:
[1] = Peptide gelation (incubation, OD 550 nm, inverted tube); type: physicochemical; conditions: for self-assembly behaviour observed over time / gel formation in water: DI water; for self-assembly behaviour observed over time: up to 40 h; for gel formation in water: C-terminus Val mutated
Method: UV-Vis spectroscopy: The peptides were dissolved in DI water at the respective concentrations and 100 μL was aliquoted into each well of a 96-well microtiter plate, with a minimum of 3 wells per condition. UV-Vis absorbance measurements at 550 nm were recorded on a Tecan infinite M200 Pro microplate reader at intervals of 30 min for the first 16 hours and subsequently at increased time intervals.
Peptide hydrogel (GV8): GV8 peptide was dissolved in DI water at the desired concentration (between 10 and 20 mM) and incubated at ambient temperature of 23° C. to 25° C. for at least 12 hours. For active agent encapsulation, GV8 hydrogels were prepared at concentrations of 20 mM to 50 mM with 1% Dimethylsulfoxide (DMSO) added per 10 mM of peptide in PBS with a pH range of 7.2 to 7.4 to form GV8 precursors, which gelate in a sealed environment under ambient temperature of 23° C. to 25° C. with a typical gelation time ranging from 5 h to 9 h (FIG. 1), depending on the concentration of the GV8 precursor. The GV8 precursors were prepared in various types of buffer solutions—such as DI water, Dulbecco's Modified Eagle's medium (DMEM), sodium acetate buffered solution with a pH range of 4 to 5, and/or buffered solutions with a pH ranging from pH 4 to 7.4.
Peptide hydrogel (GI8): GI8 peptide was dissolved in DI water at the desired concentration (between 10 and 20 mM) and incubated at ambient temperature of 23° C. to 25° C. for at least 12 hours. GI8 hydrogels were prepared at concentrations of 20 mM to 50 mM with or without 1% Dimethylsulfoxide (DMSO) added per 10 mM of peptide in PBS with a pH range of 7.2 to 7.4 to form GI8 precursors, which gelate in a sealed environment under ambient temperature of 23° C. to 25° C. with a typical gelation time ranging from 2 h to 7 h (FIG. 1), depending on the concentration of the GI8 precursor. The GI8 precursors were prepared in various types of buffer solutions—such as DI water, Dulbecco's Modified Eagle's medium (DMEM), sodium acetate buffered solution with a pH range of 4 to 5, and/or buffered solutions with a pH ranging from pH 4 to 7.4. […]

topical puncture wounds = test: In vivo wound healing assay, hydrogels applied to topical puncture wounds; set-up: species or system mice; conditions: especially at initial stages (0 d to 2 d), n=3
Method: In vivo assay: To investigate the wound healing property of the hydrogels, 30 μL GV8 and GV8+ hydrogels loaded with 200 μg/mL ADMSC secretome were applied to topical puncture wounds on non-diabetic mice models, and monitored for a period of 2 d, 5 d and 7 d at various points in time. Representative wounds have been presented in FIG. 26, illustrating the healing of untreated (blank) and treated wounds over 7 d.

[2] = in the presence of Mg2+; cited from earlier work
[3] = Nanoindentation of GL8 beads; type: physicochemical

| Substance | self-assembly behaviour observed over time [1] | gel formation in water [1] | further results |
| --- | --- | --- | --- |
| Ac-GLYGGYGI-NH2 [GI8] | remained in solution with some gel-like formation observed overtime | – | incubation time to hydrogel formation ([1]; 10 mM peptide in water, inverted tube test): 1 h |
| Ac-GLYGGYGV-NH2 [GV8] | – | – | effect on wound closure versus control wounds (topical puncture wounds): promoted and accelerated wound closure; minimal critical gelation concentration (cgc) ([1]; in water): 10 mM |
| E2(SL)6E2GRGDS | – | – | storage modulus (G′) [2]: about 480 Pa |
| GA8: Ac-GLYGGYGX-NH2 (SEQ ID NO: 11) peptide, C-terminus Val residue mutated to Ala (Ac-GLYGGYGA-NH2) | – | not able to form gels in water | – |
| GF8: Ac-GLYGGYGX-NH2 (SEQ ID NO: 11) peptide, C-terminus Val residue mutated to Phe (Ac-GLYGGYGF-NH2) | remained in solution with some gel-like formation observed overtime | not able to form gels in water | – |
| GK8: Ac-GLYGGYGX-NH2 (SEQ ID NO: 11) peptide, C-terminus Val residue mutated to Lys (Ac-GLYGGYGK-NH2) | – | not able to form gels in water | – |
| GL8: Ac-GLYGGYGX-NH2 (SEQ ID NO: 11) peptide, C-terminus Val residue mutated to Leu (Ac-GLYGGYGL-NH2) | self-assembled into large (mm-size) and stiff beads | not able to form gels in water | Young's modulus, dried ([3]; dried condition): 8.34 GPa; Young's modulus, hydrated ([3]; hydrated condition): 3.03 GPa |
| GS8: Ac-GLYGGYGX-NH2 (SEQ ID NO: 11) peptide, C-terminus Val residue mutated to Ser (Ac-GLYGGYGS-NH2) | – | not able to form gels in water | – |
